Target: T1, C1-esterase (reagent of the Technochrom C1-INH kit, Diapharma 5345003) (human, UniProt P09871 16-688, limits assumed)
T1 sequence (looked up): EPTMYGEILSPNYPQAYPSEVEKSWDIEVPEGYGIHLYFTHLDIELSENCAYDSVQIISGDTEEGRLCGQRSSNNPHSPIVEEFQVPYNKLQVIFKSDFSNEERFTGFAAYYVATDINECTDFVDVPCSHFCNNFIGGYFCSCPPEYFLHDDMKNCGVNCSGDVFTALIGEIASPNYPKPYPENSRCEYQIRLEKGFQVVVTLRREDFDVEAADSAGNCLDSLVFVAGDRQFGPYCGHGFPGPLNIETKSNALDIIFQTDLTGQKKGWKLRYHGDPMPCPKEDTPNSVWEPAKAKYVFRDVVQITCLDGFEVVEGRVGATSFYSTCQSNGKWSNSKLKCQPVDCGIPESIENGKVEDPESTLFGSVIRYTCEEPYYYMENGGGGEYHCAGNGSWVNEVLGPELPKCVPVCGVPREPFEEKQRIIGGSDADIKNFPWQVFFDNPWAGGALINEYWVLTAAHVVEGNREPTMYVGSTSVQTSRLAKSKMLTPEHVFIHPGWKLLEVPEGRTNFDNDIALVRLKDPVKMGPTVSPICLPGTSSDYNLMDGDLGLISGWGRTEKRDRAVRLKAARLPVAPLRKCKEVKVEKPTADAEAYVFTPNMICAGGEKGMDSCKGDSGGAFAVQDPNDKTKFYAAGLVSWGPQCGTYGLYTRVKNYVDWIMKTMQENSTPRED
Assay: cell-based or functional assay

B1: human C1 inhibitor (transgene product secreted into plasma after administration of AAV-encapsidated SERPING1 expression cassettes) (other)
chain: NPNATSSSSQDPESLQDRGEGKVATTVISKMLFVEPILEVSSLPTTNSTTNSATKITANTTDEPTTQPTTEPTTQPTIQPTQPTTQLPTDSPTQPTTGSFCPGPVTLCSDLESHSTEAVLGDALVDFSLKLYHAFSAMKKVETNMAFSPFSIASLLTQVLLGAGENTKTNLESILSYPKDFTCVHQALKGFTTKGVTSVSQIFHSPDLAIRDTFVNASRTLYSSSPRVLSNNSDANLELINTWVAKNTNNKISRLLDSLPSDTRLVLLNAIYLSAKWKTTFDPKKTRMEPFHFKNSVIKVPMMNSKKYPVAHFIDQTLKAKVGQLQLSHNLSLVILVPQNLKHRLEDMEQALSPSVFKAIMEKLEMSKFQPTLLTLPRIKVTTSQDMLSIMEKLEFFDFSYDLNLCGLTEDPDLQVSAMQHQTVLELTETGVEAAAASAISVARTLLVFEVQQPFLFVLWDQQHKFPVFMGRVYDPRA
- C1-INH activity, chromogenic assay of residual C1-esterase activity, reported as percentage of activity relative to a coagulation reference standard: 766 % activity
